These results are taken from publication PMC5891007, “The crystal structure of XdpB, the bacterial old yellow enzyme, in an FMN-free form” (PLoS ONE, 2018).

Series [1] addresses XdpA, short chain dehydrogenase of the xdo operon (Agrobacterium bohemicum R89-1). Description: SEC; gel filtration chromatography, with SDS PAGE for the subunit. (In gel filtration, larger molecules generally elute earlier.)
The target in series [2] is XdpR, TetR family transcriptional regulator of the xdo operon (Agrobacterium bohemicum R89-1). Description: SEC + native gel or EMSA; gel filtration; native (blue native, 7% PAGE) and SDS electrophoresis. (In general: In EMSA bound probe runs differently from free probe, usually more slowly.)
Series [3] concerns NC(=O)C1=CN([C@@H]2O[C@H](COP(=O)(O)OP(=O)(O)OC[C@H]3O[C@@H](n4cnc5c(N)ncnc54)[C@H](O)[C@@H]3O)[C@@H](O)[C@H]2O)C=CC1. Description: purified protein. The conditions noted are these: NADH co-substrate, pH 8, 25 °C, in vitro flavinated, recalculated to FMN saturation, except NADH varied (0.015 to 0.3 mM), co-substrate GTN.
For series [4], the target named is T1, XdpB (XdpBwt) (Agrobacterium tumefaciens, UniProt A0A0A0VDJ9). Put plainly: spectrophotometric NADH oxidation at […] nm, Lineweaver-Burk. The conditions noted are these: read-out: Km^GTN; NADH co-substrate; pH 8; 25 °C; in vitro flavinated, recalculated to FMN saturation.
In series [5] the target is OPR3 (Solanum lycopersicum) (UniProt Q9FEW9). The conditions noted are these: cited from earlier work.
The target of series [6] is T1, XdpB (XdpBwt). Description: nanoDSF melting temperature. Type of series: binding. Also on record: full length with N-terminal His tag (XdpBwt), made in E. coli, Ni-NTA and gel filtration; in vitro flavinated with FMN for kinetics; C-terminal residue Asn365. The conditions noted are these: apo form Tm 38.9 °C, 1 °C/min. (DSF heats the sample and reads unfolding from a dye or from intrinsic fluorescence.)

T1 sequence (A0A0A0VDJ9 entry or part of it): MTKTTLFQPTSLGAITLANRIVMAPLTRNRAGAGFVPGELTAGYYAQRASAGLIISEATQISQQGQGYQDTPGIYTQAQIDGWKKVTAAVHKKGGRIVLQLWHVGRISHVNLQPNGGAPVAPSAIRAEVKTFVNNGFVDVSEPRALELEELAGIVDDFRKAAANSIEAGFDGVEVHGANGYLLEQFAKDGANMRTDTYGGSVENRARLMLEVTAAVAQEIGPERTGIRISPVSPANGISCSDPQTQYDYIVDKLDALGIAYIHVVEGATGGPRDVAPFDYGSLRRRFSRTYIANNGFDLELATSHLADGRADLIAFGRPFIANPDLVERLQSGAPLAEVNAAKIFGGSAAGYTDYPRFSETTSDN
Chain of OPR3 (Q9FEW9 whole entry): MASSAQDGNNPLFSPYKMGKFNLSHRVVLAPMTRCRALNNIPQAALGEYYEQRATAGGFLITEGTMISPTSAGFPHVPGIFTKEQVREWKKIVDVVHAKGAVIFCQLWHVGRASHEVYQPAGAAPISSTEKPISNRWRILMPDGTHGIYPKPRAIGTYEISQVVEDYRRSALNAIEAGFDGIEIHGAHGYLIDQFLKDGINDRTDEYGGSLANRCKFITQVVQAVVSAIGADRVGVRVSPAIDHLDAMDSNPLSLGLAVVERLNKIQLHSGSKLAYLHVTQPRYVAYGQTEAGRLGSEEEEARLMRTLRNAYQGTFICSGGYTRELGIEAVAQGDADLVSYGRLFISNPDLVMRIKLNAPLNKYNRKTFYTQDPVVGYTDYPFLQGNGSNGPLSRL

Usually stoichiometry N stands for a count of units in the complex or per binding partner. “XdpA, short chain dehydrogenase of the xdo operon (enzyme)”: the stoichiometry N in series [1] stood at 2.
For the molecule “XdpR, TetR family transcriptional regulator of the xdo operon (natural protein)”, the stoichiometry N in series [2] stood at 2.
One may read the Km as the concentration of substrate that gives half-maximal velocity. Turning to “XdpB (XdpBwt) (Agrobacterium tumefaciens)”, the Km in series [3] is 6 ± 1 µM.
In the case of `O=[N+]([O-])OCC(CO[N+](=O)[O-])O[N+](=O)[O-]` [GTN, glycerol trinitrate], on XdpB (XdpBwt) [4], the Michaelis constant (Km) is 460 ± 132 µM.
One may read the Kd as the concentration at which binding is half-saturated. For OPR3 (from UniProt Q9FEW9), the Kd in series [5] was 30 µM.
As for `Cc1cc2nc3c(=O)[nH]c(=O)nc-3n(C[C@H](O)[C@H](O)[C@H](O)COP(=O)(O)O)c2cc1C` [FMN, flavin mononucleotide], on XdpB (XdpBwt) [6], the “melting temperature of in vitro flavinated form” value was 39.8 °C.
